Read-outs that look alike come from different tables or passages of the source.
Tests used:
[1] = tested on: neutrophil activation markers (L-selectin, CD11b, CD18, CD66); assay: Phase 1 trial: neutrophil activation markers (flow cytometry); assay type: in vivo, human; conditions: MGTA-145 monotherapy
Method: (§1) Additionally, blood samples were analyzed by multicolor flow cytometry to quantify changes in expression of neutrophil activation markers such as L-selectin, CD11b, CD18, and CD66. Additionally, matrix metalloproteinase 9 (MMP-9), a neutrophil protease believed to mediate mobilization in response to MGTA-145, as well as its cognate inhibitor, TIMP-1, were quantified in plasma samples collected at the same time points by sandwich immunoassay.

[2] = assay type: in vivo
CD34+ cells [3] = assay: Phase 1 trial: mobilization of CD34+ cells into peripheral blood (multicolor flow cytometry); conditions: for Percent ≥20/μL / Peak CD34+ (#/μL) Median: Part A
CD34+ cells [4] = assay: Phase 1 trial Part D: apheresis collection yield; conditions: 2 h stagger after plerixafor
Method: (§2) The dose of MGTA-145 was one of 0.0075 mg/kg, 0.015 mg/kg, 0.03 mg/kg, 0.075 mg/kg, 0.15 mg/kg, or 0.3 mg/kg. […] The dose of MGTA-145 was one of 0.015 mg/kg, 0.03 mg/kg, 0.075 mg/kg, or 0.15 mg/kg. […] The dose of MGTA-145 was one of 0.03 mg/kg or 0.075 mg/kg.
The table documents the body weight of each subject, the total CD34+ cells that were obtained through the apheresis procedure, the normalized CD34+ cells/kg of body weight, and the percentage of CD34+ cells that were CD90+CD45RA−.
The table documents the total CD34+ cells that were obtained through the apheresis procedure, the normalized CD34+ cells/kg of body weight, and the percentage of CD34+ cells that were CD90+CD45RA−.

MMP-9 = assay: Phase 1 trial: plasma MMP-9 and TIMP-1 (sandwich immunoassay); assay type: in vivo, human; conditions: MGTA-145 monotherapy, all six doses
Method: as §1

[5] = tested on: neutrophil and platelet engraftment; assay type: in vivo
neutrophils = assay: Phase 1 trial: mobilization of neutrophils (automated hematology analyzer); conditions: MGTA-145 monotherapy
Method: as §2
(§3) Mobilization of white blood cells (WBCs), neutrophils, lymphocytes, basophils, and eosinophils was quantified by automated hematology analyzer.

white blood cells (WBCs) = assay: Phase 1 trial: mobilization of white blood cells (automated hematology analyzer); conditions: MGTA-145 monotherapy
Method: as §2, §3

[6] = Phase 1 trial: treatment emergent adverse events; conditions: Part A, n = 24
From the text: FIG. 1A depicts the treatments provided to patient cohorts enrolled in Part A and Part B of a Phase 1 clinical trial as well as measurable endpoints.
Patients were monitored for emergent adverse events.

CD34+CD90+CD45RA− cells = assay: Phase 1 trial: mobilization of CD34+CD90+CD45RA− cells into peripheral blood (flow cytometry)
[7] = tested on: hematopoietic stem and progenitor cells; conditions: U.S. Pat. No. 6,080,398; cited from earlier work
[8] = tested on: LT-HSC cells (Lin−c-Kit+Sca1+CD150+CD48−); assay: Mobilization in mice and primary/secondary transplantation at limit dilution; assay type: in vivo; conditions: compared to the other cohorts
From the text: Mice (CD45.1) were mobilized according to the scheme shown in FIG. 24 and mobilized cells transplanted into CD45.2 mice at limit dilution.

CXCR2 = target: T1, CXCR2 (Homo sapiens, UniProt P25025); assay: Phase 1 trial: CXCR2 expression on peripheral blood neutrophils; assay type: in vivo
T1 construct: endogenous in cells; host or cells: peripheral blood neutrophils of dosed subjects (in vivo)
T1 sequence (P25025 1-360): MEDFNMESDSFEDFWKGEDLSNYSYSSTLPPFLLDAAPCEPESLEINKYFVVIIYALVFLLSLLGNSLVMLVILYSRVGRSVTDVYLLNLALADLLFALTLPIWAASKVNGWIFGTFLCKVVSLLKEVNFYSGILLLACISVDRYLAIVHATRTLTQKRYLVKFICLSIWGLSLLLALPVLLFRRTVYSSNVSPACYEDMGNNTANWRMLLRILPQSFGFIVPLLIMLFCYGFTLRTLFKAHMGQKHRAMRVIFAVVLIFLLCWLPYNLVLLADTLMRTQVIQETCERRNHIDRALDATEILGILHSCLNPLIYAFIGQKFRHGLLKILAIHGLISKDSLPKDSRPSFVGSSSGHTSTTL

[9] = tested on: CD90+CD45RA− among CD34+ cells; conditions: Goncalves ASTCT 2021; cited from earlier work
[10] = tested on: graft cell subsets (T cells, B cells, NK cells); conditions: cited from earlier work
[11] = tested on: neutrophil activation markers (L-selectin, CD11b, CD18, CD66); conditions: 5 days of G-CSF treatment, Falanga et al., Blood 1999; cited from earlier work
[12] = G-CSF; bone pain, headache, myalgia, and/or fatigue (up to 1+ week); Pulsiper et al. 2009; cited from earlier work
[13] = MGTA-145 monotherapy 0.03 mg/kg
[14] = MGTA-145 monotherapy, the other doses
[15] = higher doses (0.075, 0.15, 0.3 mg/kg), 2 hours post administration
[16] = lower doses (0.0075, 0.015, 0.03 mg/kg)
[17] = Chen et al., 2019, 2 LP plerixafor, 1 LP G-CSF
[18] = Devine et al, 2008, yield of 1 LP
[19] = G-CSF, Chaidos et al, Blood 2012

With “MGTA-145: Gro-β T (SEQ ID NO: 2), truncated Gro-β with deletion of the first four N-terminal amino acids; CXCR2 agonist” the “fold change relative to baseline of CD66” value ([1]; all doses except the highest (0.3 mg/kg)) was < 2 fold, the “fold change relative to baseline of CD11b and CD18” value ([1]; all six doses) was < 2 fold and the “fold change relative to baseline of L-selectin” value ([1]; all six doses) was < 2 fold. For the same molecule, the “median severity of pain on a scale of 1-10” value [2] was 8 (3-10), the patients experiencing hyperhidrosis [2] was 4% and the patients experiencing nausea [2] was 8%. The patients experiencing thrombocytopenia [2] was 8%, the “patients experiencing vomiting (grade 2)” value [2] was 4% and the “patients with TEAEs at least possibly related to MGTA-145” value [2] was 60%. The “patients with acute pain” value [2] was 9 patients, the patients experiencing pain ([2]; 11 patients) was 50% and the “patients with acute onset transient bone pain with MGTA-145” value ([2]; 25 patients) was 38%. The “patients with pain (all grade 1)” value ([2]; 25 patients) was 44%, the “patients with at least 1 treatment emergent AE with MGTA-145” value ([2]; 25 patients, grade 1 n=14, grade 2 n=1) was 60% and the “duration of acute onset transient bone pain” value ([2]; 25 patients, range 3-28) was 7 min. The “patients with at least 1 adverse event” value ([2]; initial cohort) was 90%, the “patients with grade 2 AEs (anemia, hypokalemia)” value ([2]; initial cohort) was 20% and the “patients with grade 3 AEs (worsening of baseline grade 3 anemia; hypocalcemia)” value ([2]; initial cohort) was 20%. For the same molecule, the tolerability ([2]; multiple myeloma patients) was “well tolerated”, the “onset of acute and transient bone pain after start of MGTA-145 infusion (median)” value ([2]; range 3-10) was “about 5 minutes” and the “median duration of acute and transient bone pain” value ([2]; range 3-28) was 7 min. For the same molecule, the “fold increase of CD34+ cells” value (CD34+ cells [3]; [13]) was 7 fold, the “peak concentration of CD34+ cells” value (CD34+ cells [3]; [13]) was ~10 cells/μL and the “time of peak CD34+ mobilization post administration” value (CD34+ cells [3]; MGTA-145 monotherapy, across six doses 0.0075-0.3 mg/kg) was “about 30 minutes”. The “fold increase of CD34+ cells” value (CD34+ cells [3]; [14]) was 2-3 fold, the “peak concentration of CD34+ cells” value (CD34+ cells [3]; MGTA-145 monotherapy, the other doses (0.0075, 0.015, 0.075, 0.15, 0.3 mg/kg)) was ~5 cells/μL and the “Percent ≥20/μL” value (CD34+ cells [3]; MGTA-145 0.03 mg/kg) was 0%. For the same molecule, the “Peak CD34+ (#/μL) Median” value (CD34+ cells [3]; MGTA-145 0.3 mg/kg) was 3 #/μL, the “Percent ≥20/μL” value (CD34+ cells [3]; MGTA-145 0.3 mg/kg) was 0% and the “Peak CD34+ (#/μL) Median” value (CD34+ cells [3]; MGTA-145 on Day 1, 0.03 mg/kg) was 12 #/μL. For the same molecule, the “CD34+/kg Mean” value (CD34+ cells [4]; MGTA-145 0.03 mg/kg) was 4.1 x10^6, the “CD34+/kg Median” value (CD34+ cells [4]; MGTA-145 0.03 mg/kg) was 4.3 x10^6 and the “CD90+/kg Mean (CD34+CD90+CD45RA− cells)” value (CD34+ cells [4]; MGTA-145 0.03 mg/kg) was 1.3 x10^6. The “CD90+/kg Median (CD34+CD90+CD45RA− cells)” value (CD34+ cells [4]; MGTA-145 0.03 mg/kg) was 1.5 x10^6, the “Total CD34+ Yield Median (range)” value (CD34+ cells [4]; MGTA-145 0.03 mg/kg) was 321 (239-500) x10^6 and the “CD90+ (% of CD34+)” value (CD34+ cells [4]; MGTA-145 0.03 mg/kg, 0.03 mg/kg) was 31%. The “CD90+/kg Mean (CD34+CD90+CD45RA− cells)” value (CD34+ cells [4]; MGTA-145 […]) was 1.4 x10^6, the “CD90+/kg Median (CD34+CD90+CD45RA− cells)” value (CD34+ cells [4]; MGTA-145 […]) was 1.2 x10^6 and the “CD90+ (% of CD34+)” value (CD34+ cells [4]; MGTA-145 […], […]) was 37%. For the same molecule, the “molar ratio of MMP-9:TIMP-1” value (MMP-9) was “rapid increase 30 minutes post-administration”, the “plasma levels of MMP-9” value (MMP-9) was “increased sharply within 30 minutes post-administration” and the “engraftment at day 100 follow-up” value ([5]; 14 patients) was “durable engraftment”. For the same molecule, the engraftment after transplant ([5]; 18 transplanted patients) was “All patients have engrafted”, the “median time to platelet engraftment (platelets ≥20,000×10^6/L, no transfusion in 7 days)” value ([5]; 18 transplanted patients) was 17.5 days and the “patients needing RBC transfusion” value ([5]; 18 transplanted patients) was 17%. For the same molecule, the “median time to neutrophil engraftment” value ([5]; 18 transplanted patients, range 11-15) was 12 days, the “initial plateau of neutrophil mobilization” value (neutrophils; [15]) was 5-8 ×10^3 cells/μL and the “peak mobilization of neutrophils” value (neutrophils; [16]) was 13-15 ×10^3 cells/μL. For the same molecule, the “initial plateau of WBC mobilization” value (white blood cells (WBCs); [15]) was 6-10 ×10^3 cells/μL, the “peak mobilization of WBCs” value (white blood cells (WBCs); [16]) was 15-17 ×10^3 cells/μL and the “Subjects with any drug related TEAE” value ([6]; MGTA-145 0.0075-0.3 mg/kg) was 19 (79.2) n (%). The “Back pain/Musculoskeletal pain” value [6] was 19 (79.2) n (%), the “fold increase of CD34+CD90+CD45RA− cells” value (CD34+CD90+CD45RA− cells; [13]) was ~8.3 fold and the “peak concentration of CD34+CD90+CD45RA− cells” value (CD34+CD90+CD45RA− cells; [13]) was ~3 cells/μL. The “time of peak CD34+CD90+CD45RA− mobilization post administration” value (CD34+CD90+CD45RA− cells; MGTA-145 monotherapy, six doses) was 30 min, the “fold increase of CD34+CD90+CD45RA− cells” value (CD34+CD90+CD45RA− cells; [14]) was 2-3.5 fold and the “peak concentration of CD34+CD90+CD45RA− cells” value (CD34+CD90+CD45RA− cells; [14]) was 1-1.6 cells/μL. For the same molecule, the “potency to induce hematopoietic stem and progenitor cell mobilization relative to Gro-β” value [7] was “superior to that of Gro-β by multiple orders of magnitude”, the “engraftment rates, secondary transplantation” value [8] was “vastly improved engraftment rates” and the “CXCR2 expression recovery prior to the second dose” value (CXCR2; MGTA-145 0.07 mg/kg, staggered dosing with plerixafor, two consecutive days) was ~80 % of baseline. The “CXCR2 on peripheral neutrophils” value (CXCR2; MGTA-145 monotherapy, followed by recovery over 24 hours) was “rapid downregulation”.

B1: G-CSF: Filgrastim (G-CSF), most common clinical hematopoietic stem cell mobilization protocol, five days (protein, chains of the INN, looked up)
chain: MTPLGPASSLPQSFLLKCLEQVRKIQGDGAALQEKLCATYKLCHPEELVLLGHSLGIPWAPLSSCPSQALQLAGCLSQLHSGLFLYQGLLQALEGISPELGPTLDTLQLDVADFATTIWQQMEELGMAPALQPTQGAMPAFASAFQRRAGGVLVASHLQSFLEVSYRVLRHLAQP
For B1, the “CD90+CD45RA− among CD34+ cells with a regimen that includes G-CSF” value [9] is listed as 6%, the “graft CD34+ Median (range)” value ([10]; Chen et al., 2019, 2 LP for plerixafor (N = 50+), 1 LP for G-CSF (N = 112+)) is listed as 4.2e+06 kg⁻¹ and the “graft CD3+ Median (range)” value [10, 17] is listed as 2.5e+08 kg⁻¹. The “graft CD4+ Median (range)” value [10, 17] was 1.5e+08 kg⁻¹, the “graft CD8+ Median (range)” value [10, 17] was 7e+07 kg⁻¹ and the “graft CD19+ Median (range)” value [10, 17] was 5e+07 kg⁻¹. The “graft CD56+ Median (range)” value [10, 17] was 1e+07 kg⁻¹, the “graft CD3+ Median (range)” value [10, 18] was 1.3 (1.2-6.8) ×10^8/kg and the “graft CD4+ Median (range)” value [10, 18] was 1.1 (0.7-3.2) ×10^8/kg. For the same molecule, the “graft CD8+ Median (range)” value [10, 18] was 0.4 (0.3-3.4) ×10^8/kg, the “graft CD56+ Median (range)” value [10, 18] was 0.2 (0.1-0.5) ×10^8/kg and the “graft CD34+ Median (range)” value ([10]; Devine et al, 2008, yield of 1 LP, plerixafor N = 24, G-CSF N = 8) was 4.2 (2.5-18.7) ×10^6/kg. For the same molecule, the “TNC/kg donor weight Median (range)” value ([10]; G-CSF, 40 healthy donors, Singhal et al, BMT 2000) was 7.2 (3.2-14.0) ×10^8 cells, the “frequency of CD3+ T cells in graft, Median” value ([10]; G-CSF, 78 healthy donors, Chaidos et al, Blood 2012) was 45.3 % of CD45+ and the “frequency of CD4+ T cells in graft, Median” value [10, 19] was 29.8 % of CD45+. The “frequency of CD8+ T cells in graft, Median” value [10, 19] was 11.8 % of CD45+, the “frequency of CD19+ B cells in graft, Median” value [10, 19] was 10.5 % of CD45+ and the “frequency of CD56+ NK cells in graft, Median” value [10, 19] was 3.2 % of CD45+. For the same molecule, the “frequency of Tregs in graft, Median” value [10, 19] was 3.5 % of CD4+ T cells, the “frequency of iNKT cells in graft, Median” value [10, 19] was 0.04 % of CD3+ and the “fold increase in neutrophil activation markers” value [11] was ~2.7 fold. For the same molecule, the tolerability [12] was “Majority with bone pain,”.

— patent publication US20240189387A1, “DOSING REGIMENS FOR HEMATOPOIETIC STEM CELL MOBILIZATION FOR STEM CELL TRANSPLANTS IN MULTIPLE MYELOMA PATIENTS” (Ensoma, Inc., priority 2021, published 2024)
